Results published in paper PMC10079162 (Nature Communications, 2023).

Key:
SARS CoV-2 RBD = SARS CoV-2 RBD (SARS-CoV-2, strain  …, UniProt P0DTC2)
human serum albumin = biological target: T1, human serum albumin (Homo sapiens, UniProt P02768); experiment: BLI; format and conditions not told in the main text (methods are in the Supplementary Materials); conditions: both partners purified
T1 construct: also called HSA

Binder	binding result (SARS CoV-2 RBD)	binding result (human serum albumin)
CR3022 M40P S56G Q67R; T59K (output_8) (antibody, V domains shown) VH: QMQLVQSGTEVKKPGESLKISCKGSGYGFITYWIGWVRQPPGKGLEWMGIIYPGDGETRYSPSFQGRVTISADKSINTAYLQWSSLKASDTAIYYCAGGSGISTPMDVWGQGTTVTVVS VL: not shown	binds	
Nb.b201 WT (VHH, source: HEK293 cells; obtained at high purity) VHH: QVQLQESGGGLVQAGGSLRLSCAASGYISDAYYMGWYRQAPGKEREFVATITHGTNTYYADSVKGRFTISRDNAKNTVYLQMNSLKPEDTAVYYCAVLETRSYSFRYWGQGTQVTVSS		binds
Nb.b201 H53P (VHH, source: HEK293 cells; obtained at high purity) VHH: QVQLQESGGGLVQAGGSLRLSCAASGYISDAYYMGWYRQAPGKEREFVATITPGTNTYYADSVKGRFTISRDNAKNTVYLQMNSLKPEDTAVYYCAVLETRSYSFRYWGQGTQVTVSS		binds
Nb.b201 T55G (VHH, source: HEK293 cells; obtained at high purity) VHH: QVQLQESGGGLVQAGGSLRLSCAASGYISDAYYMGWYRQAPGKEREFVATITHGGNTYYADSVKGRFTISRDNAKNTVYLQMNSLKPEDTAVYYCAVLETRSYSFRYWGQGTQVTVSS		binds
Nb.b201 H53R (VHH, source: HEK293 cells; obtained at high purity) VHH: QVQLQESGGGLVQAGGSLRLSCAASGYISDAYYMGWYRQAPGKEREFVATITRGTNTYYADSVKGRFTISRDNAKNTVYLQMNSLKPEDTAVYYCAVLETRSYSFRYWGQGTQVTVSS		binds
Nb.b201 A31D (VHH, source: HEK293 cells; obtained at high purity) VHH: QVQLQESGGGLVQAGGSLRLSCAASGYISDDYYMGWYRQAPGKEREFVATITHGTNTYYADSVKGRFTISRDNAKNTVYLQMNSLKPEDTAVYYCAVLETRSYSFRYWGQGTQVTVSS		binds
Nb.b201 H53P T55G (VHH, source: HEK293 cells; obtained at high purity) VHH: QVQLQESGGGLVQAGGSLRLSCAASGYISDAYYMGWYRQAPGKEREFVATITPGGNTYYADSVKGRFTISRDNAKNTVYLQMNSLKPEDTAVYYCAVLETRSYSFRYWGQGTQVTVSS		binds
Nb.b201 T55D (VHH, source: HEK293 cells; obtained at high purity) VHH: QVQLQESGGGLVQAGGSLRLSCAASGYISDAYYMGWYRQAPGKEREFVATITHGDNTYYADSVKGRFTISRDNAKNTVYLQMNSLKPEDTAVYYCAVLETRSYSFRYWGQGTQVTVSS		binds
Nb.b201 A31D T55D (VHH, source: HEK293 cells; obtained at high purity) VHH: QVQLQESGGGLVQAGGSLRLSCAASGYISDDYYMGWYRQAPGKEREFVATITHGDNTYYADSVKGRFTISRDNAKNTVYLQMNSLKPEDTAVYYCAVLETRSYSFRYWGQGTQVTVSS		binds
Nb.b201 A31D T55G (VHH, source: HEK293 cells; obtained at high purity) VHH: QVQLQESGGGLVQAGGSLRLSCAASGYISDDYYMGWYRQAPGKEREFVATITHGGNTYYADSVKGRFTISRDNAKNTVYLQMNSLKPEDTAVYYCAVLETRSYSFRYWGQGTQVTVSS		binds
